In paper PMC11233452:

Molecular target: T1, PsrA (Pseudomonas aeruginosa PAO1) (UniProt Q9HZJ9)
T1 sequence: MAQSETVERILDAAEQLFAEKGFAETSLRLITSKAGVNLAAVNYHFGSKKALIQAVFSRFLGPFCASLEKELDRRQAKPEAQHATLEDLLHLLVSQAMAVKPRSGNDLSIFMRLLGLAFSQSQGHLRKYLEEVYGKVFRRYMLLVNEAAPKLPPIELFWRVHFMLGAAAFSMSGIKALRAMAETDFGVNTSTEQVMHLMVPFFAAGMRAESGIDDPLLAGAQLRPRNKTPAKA
Assay: EMSA

Row | Sequence | binding
1 | CCTGTCGGCGTTTCATGGAATTGTCACAACCGCACAGTATCGCTTGCGGTAAAGCGGCCCAGGTGGTCGAACGTTGTCATAGGGAGGGGGATGCTCGATGGCTGAAGGCTGCGTCCTGAACGGTGCTGGCATAACAGATAGGGTTGCCATGATTTTGCCGTATCGGCAAGGCTGCGCGCTTGACAGCGTCATACCCCGGGCCAATTCTGCTGTGATGCATTTTATCGATCAGGGCTTACTGCAATGAGGAATGACGGAGGCTTTTTGCTGTGGTGGGACGGTTTGCGTAGCGAGATG (double strand) [PrhlR 258-544 bp] | no binding
2 | CGCTTCCCTTGATCGGGTCAGGTTGCCGCTACTGTGGAAGAAGCGTCGAGGACTCGATAGATAGCGCCCGAGTGTTTCAACTTGTCTTCTGGATGACGTTTTCATCGGGGAAACCTCCCGTCGGTCAGTGAAGCGCAAGGGCTGGCGTGCGAGGGTGGAATCGGCCGCCGGCTCGCTTTCTGCGCGGCGGGCGCACGGCACGGGGAGTCGTCGTTTTGGAGGTGAGGGATGACGGCTCTGTTTCAGGA (double strand) [PmvfR 223-470 bp] | no binding
3 | GCGCACGGCACGGGGAGTCGTCGTTTTGGAGGTGAGGGATGACGGCTCTGTTTCAGGATATTTTTATAATTATGTGAAAGAAGAGCTTATTTCAACGAAATATGTTTCATATTGCTCGTAAATTCGACGAAAAGAAAATCCGGATATTTACCGGTTATTTAACGTTAATACCAAGGGCCTAATACCAAAGTATTAACGCTGGCATGCCGGCATGTCGTGTTCGGTCGTGGAGCGAGCCGAGCCAGGAACGGTTCTAAGAAACGA (double strand) [PmvfR 17-280 bp] | no binding
4 | TGGCGATGGGCCGACAGTGAACCCGGGGACCAGGTGTGACTGGGTATTCAGTTCGCATAAAATGTGATCTAGATCACATTTAAACGTTTGCTTACCCTCTAGGACGGGTATCGTACTAGGTGCATCAAACGCTGCGGTCTATTGTTAAGTGGGACTGAAATGTGCCTTTCCGGCACAACGCCAACTCTATAG (double strand) [PlasR 153-344 bp] | binds
5 | TGTGCGGTTGTGACAATTCCATGAAACGCCGACAGGCCGCCGCCATGGCCGGGTCCTCGAGCAAGCGCCACAGCGCCCCGCGCAACTCCTGCTCGCGCAACGGCACGCCCAGGCGCATCCCGCAGCCGAGCCGGACCAGCCGTTCGGCATTGTCGAACTGGTCGTGGGCACAGGGCAGCAGCACCTGCGGCACCCCCGCCGCCAAGGCTAGGCTCATGGCGCCGATACCGCCCGGATGGACCAGCCCGGCGCACGATGGCAGCAAGGCTCCCAGTGGCGCGTA (double strand) [PrhlR 11-293 bp] | no binding
